This is an account of results in IntAct's records for PubMed 20095964.

B1: Junctophilin-2 (Mus musculus), Q9ET78 (parent)
chain: MSGGRFDFDDGGAYCGGWEGGKAHGHGLCTGPKGQGEYSGSWNFGFEVAGVYTWPSGNTFEGYWSQGKRHGLGIETKGRWLYKGEWTHGFKGRYGIRQSTNSGAKYEGTWNNGLQDGYGTETYADGGTYQGQFTNGMRHGYGVRQSVPYGMAVVVRSPLRTSLSSLRSEHSNGTVAPDSPAADGPMLPSPPVPRGGFALTLLATAEAARPQGLFTRGTLLGRLRRSESRTSLGSQRSRLSFLKSELSSGASDAASTGSLAEGAEGPDDAAAPFDADIDATTTETYMGEWKNDKRSGFGVSERSSGLRYEGEWLDNLRHGYGRTTLPDGHREEGKYRHNVLVKGTKRRVLPLKSSKVRQKVEHGVEGAQRAAAIARQKAEIAASRTSHAKAKAEAAEQAALAANQESNIARTLAKELAPDFYQPGPEYQKRRLLQEILENSESLLEPPERGLGTGLPERPRESPQLHERETPQPEGGPPSPAGTPPQPKRPRPGASKDGLLSPGSWNGEPGGEGSRPATPSDGAGRRSPARPASEHMAIEALQPPPAPSQEPEVAMYRGYHSYAVRTGPPEPPPLEDEQEPEPEPEPEVRRSDSAPPSPVSATVPEEEPPAPRSPVPAKQATLEPKPIVPKAEPKAKARKTEARGLSKAGAKKKGRKEVAQAKEAEVEVEEVPNTVLICMVILLNIGLAILFVHLLT
partner: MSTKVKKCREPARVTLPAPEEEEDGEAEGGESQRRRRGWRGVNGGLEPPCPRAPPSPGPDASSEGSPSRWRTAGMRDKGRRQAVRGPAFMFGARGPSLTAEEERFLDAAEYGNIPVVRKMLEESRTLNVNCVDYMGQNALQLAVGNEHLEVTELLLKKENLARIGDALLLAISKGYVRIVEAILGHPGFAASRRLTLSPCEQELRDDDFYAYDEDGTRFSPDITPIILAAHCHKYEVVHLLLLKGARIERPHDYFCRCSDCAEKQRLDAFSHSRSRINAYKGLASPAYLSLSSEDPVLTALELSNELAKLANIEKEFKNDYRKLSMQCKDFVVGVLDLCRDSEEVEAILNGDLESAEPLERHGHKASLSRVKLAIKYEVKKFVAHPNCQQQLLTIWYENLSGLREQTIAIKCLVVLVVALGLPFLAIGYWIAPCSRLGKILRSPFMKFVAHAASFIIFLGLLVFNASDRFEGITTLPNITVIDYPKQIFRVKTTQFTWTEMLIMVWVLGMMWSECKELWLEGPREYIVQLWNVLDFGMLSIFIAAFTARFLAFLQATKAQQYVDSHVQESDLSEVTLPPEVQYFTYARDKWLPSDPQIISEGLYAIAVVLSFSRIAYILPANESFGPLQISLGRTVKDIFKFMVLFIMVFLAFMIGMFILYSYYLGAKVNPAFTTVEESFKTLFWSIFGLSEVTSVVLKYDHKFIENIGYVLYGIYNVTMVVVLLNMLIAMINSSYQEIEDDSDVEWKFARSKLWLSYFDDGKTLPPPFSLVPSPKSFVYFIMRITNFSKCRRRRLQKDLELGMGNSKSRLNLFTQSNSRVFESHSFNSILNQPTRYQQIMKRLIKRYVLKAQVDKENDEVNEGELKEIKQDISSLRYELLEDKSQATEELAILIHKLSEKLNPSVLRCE

Variants of B1 are the subject of this assay. Particulars: with trpc3_mouse Trpc3, Q9QZC1.
S165F: the “effect of a mutation on the interaction” value is reported as “decreasing interaction”.
